Each block holds one substance with its values, some of them ahead of it.
What was measured:
Experiment in all cases: AUC
[1] = biological target: Mouse N-cadherin EC1-2 wild type (mouse)
[2] = biological target: Mouse E-cadherin EC1-2 W2F (mouse)
[3] = biological target: Mouse E-cadherin EC1-2 P5A P6A (mouse)
[4] = biological target: Mouse E-cadherin EC2-3 F108W del-TQE (mouse)
[5] = biological target: Mouse E-cadherin EC1-2 with one alanine inserted between residues 2 and 3 (mouse)
[6] = biological target: Mouse E-cadherin EC1-2 P5G P6G (mouse)
[7] = biological target: Mouse N-cadherin EC1-2 P5A P6A (mouse)
[8] = biological target: Mouse cadherin-11 EC1-2 wild type (mouse)
[9] = biological target: Mouse E-cadherin EC1-2 wild-type (mouse)
[10] = biological target: Mouse E-cadherin EC1-2 P5A (mouse)
[11] = biological target: Mouse E-cadherin EC1-2 with two alanines inserted between residues 2 and 3 (mouse)
[12] = biological target: Mouse cadherin-11 EC1-2 F8A (mouse)
[13] = biological target: Mouse E-cadherin EC1-2 P5S P6S (mouse)
[14] = biological target: Mouse E-cadherin EC1-2 E11D (mouse)
[15] = biological target: Mouse E-cadherin EC1-2 P6A (mouse)

Substance: Mouse E-cadherin EC1-2 P5A P6A (domain or fragment)
Kd [3]: 3.7 µM

Substance: Mouse E-cadherin EC2-3 F108W del-TQE (domain or fragment)
Kd [4]: 46.5 µM

Substance: Mouse E-cadherin EC1-2 P5G P6G (domain or fragment)
Kd [6]: 2700 nM

Substance: Mouse N-cadherin EC1-2 P5A P6A (domain or fragment)
Kd [7]: 3.6 µM

Substance: Mouse cadherin-11 EC1-2 wild type (domain or fragment)
Kd [8]: 25.2 µM

Substance: Mouse E-cadherin EC1-2 wild-type (domain or fragment)
Kd [9]: 96.5 µM

Substance: Mouse E-cadherin EC1-2 with two alanines inserted between residues 2 and 3 (domain or fragment)
Kd [11]: 195 µM

Substance: Mouse E-cadherin EC1-2 E11D (domain or fragment)
Kd [14]: 71.2 µM

Continued, values first:

Kd [1]: 25.8 µM
Substance: Mouse N-cadherin EC1-2 wild type (domain or fragment)

Kd [2]: 246 µM
Substance: Mouse E-cadherin EC1-2 W2F (domain or fragment)

Kd [5]: 1.52 mM
Substance: Mouse E-cadherin EC1-2 with one alanine inserted between residues 2 and 3 (domain or fragment)

Kd [10]: 2900 nM
Substance: Mouse E-cadherin EC1-2 P5A (domain or fragment)

Kd [12]: 3.7 µM
Substance: Mouse cadherin-11 EC1-2 F8A (domain or fragment)

Kd [13]: 2900 nM
Substance: Mouse E-cadherin EC1-2 P5S P6S (domain or fragment)

Kd [15]: 4.8 µM
Substance: Mouse E-cadherin EC1-2 P6A (domain or fragment)

Reference: paper PMC3113550
